The text below walks through data of patent US9046519 (RSR, dated 2015).

B1: TSHR Asp232 to Ala, Arg255 to Ala and Trp258 to Ala (receptor)
chain: GMGCSSPPCECHQEEDFRVTCKDIQRIPSLPPSTQTLKLIETHLRTIPSHAFSNLPNISRIYVSIDVTLQQLESHSFYNLSKVTHIEIRNTRNLTYIDPDALKELPLLKFLGIFNTGLKMFPDLTKVYSTDIFFILEITDNPYMTSIPVNAFQGLCNETLTLKLYNNGFTSVQGYAFNGTKLDAVYLNKNKYLTVIDKDAFGGVYSGPSLLAVSQTSVTALPSKGLEHLKELIAANTATLKKLPLSLSFLHLTRADLSYPSHCCAFKNQKKIRGILESLMCNESSMQSLRQRKSVNALNSPLHQEYEENLGDSIVGYKEKSKFQDTHNNAHYYVFFEEQEDEIIGFGQELKNPQEETLQAFDSHYDYTICGDSEDMVCTPKSDEFNPCEDIMGYKFLRIVVWFVSLLALLGNVFVLLILLTSHYKLNVPRFLMCNLAFADFCMGMYLLLIASVDLYTHSEYYNHAIDWQTGPGCNTAGFFTVFASELSVYTLTVITLERWYAITFAMRLDRKIRLRHACAIMVGGWVCCFLLALLPLVGISSYAKVSICLPMDTETPLALAYIVFVLTLNIVAFVIVCCCYVKIYITVRNPQYNPGDKDTKIAKRMAVLIFTDFICMAPISFYALSAILNKPLITVSNSKILLVLFYPLNSCANPFLYAIFTKAFQRDVFILLSKFGICKRQAQAYRGQRVPPKNSTDIQVQKVTHEMRQGLHNMEDVYELIENSHLTPKKQGQISEEYMQTVL
notes: whole, on cells; as m1
B2: TSHR Arg255 to Ala, Trp258 to Ala and Tyr185 to Ala (receptor)
chain: GMGCSSPPCECHQEEDFRVTCKDIQRIPSLPPSTQTLKLIETHLRTIPSHAFSNLPNISRIYVSIDVTLQQLESHSFYNLSKVTHIEIRNTRNLTYIDPDALKELPLLKFLGIFNTGLKMFPDLTKVYSTDIFFILEITDNPYMTSIPVNAFQGLCNETLTLKLANNGFTSVQGYAFNGTKLDAVYLNKNKYLTVIDKDAFGGVYSGPSLLDVSQTSVTALPSKGLEHLKELIAANTATLKKLPLSLSFLHLTRADLSYPSHCCAFKNQKKIRGILESLMCNESSMQSLRQRKSVNALNSPLHQEYEENLGDSIVGYKEKSKFQDTHNNAHYYVFFEEQEDEIIGFGQELKNPQEETLQAFDSHYDYTICGDSEDMVCTPKSDEFNPCEDIMGYKFLRIVVWFVSLLALLGNVFVLLILLTSHYKLNVPRFLMCNLAFADFCMGMYLLLIASVDLYTHSEYYNHAIDWQTGPGCNTAGFFTVFASELSVYTLTVITLERWYAITFAMRLDRKIRLRHACAIMVGGWVCCFLLALLPLVGISSYAKVSICLPMDTETPLALAYIVFVLTLNIVAFVIVCCCYVKIYITVRNPQYNPGDKDTKIAKRMAVLIFTDFICMAPISFYALSAILNKPLITVSNSKILLVLFYPLNSCANPFLYAIFTKAFQRDVFILLSKFGICKRQAQAYRGQRVPPKNSTDIQVQKVTHEMRQGLHNMEDVYELIENSHLTPKKQGQISEEYMQTVL
notes: whole, on cells; as m1
B3: TSHR Trp258 to Ala, Lys183 to Ala and Tyr185 to Ala (receptor)
chain: GMGCSSPPCECHQEEDFRVTCKDIQRIPSLPPSTQTLKLIETHLRTIPSHAFSNLPNISRIYVSIDVTLQQLESHSFYNLSKVTHIEIRNTRNLTYIDPDALKELPLLKFLGIFNTGLKMFPDLTKVYSTDIFFILEITDNPYMTSIPVNAFQGLCNETLTLALANNGFTSVQGYAFNGTKLDAVYLNKNKYLTVIDKDAFGGVYSGPSLLDVSQTSVTALPSKGLEHLKELIARNTATLKKLPLSLSFLHLTRADLSYPSHCCAFKNQKKIRGILESLMCNESSMQSLRQRKSVNALNSPLHQEYEENLGDSIVGYKEKSKFQDTHNNAHYYVFFEEQEDEIIGFGQELKNPQEETLQAFDSHYDYTICGDSEDMVCTPKSDEFNPCEDIMGYKFLRIVVWFVSLLALLGNVFVLLILLTSHYKLNVPRFLMCNLAFADFCMGMYLLLIASVDLYTHSEYYNHAIDWQTGPGCNTAGFFTVFASELSVYTLTVITLERWYAITFAMRLDRKIRLRHACAIMVGGWVCCFLLALLPLVGISSYAKVSICLPMDTETPLALAYIVFVLTLNIVAFVIVCCCYVKIYITVRNPQYNPGDKDTKIAKRMAVLIFTDFICMAPISFYALSAILNKPLITVSNSKILLVLFYPLNSCANPFLYAIFTKAFQRDVFILLSKFGICKRQAQAYRGQRVPPKNSTDIQVQKVTHEMRQGLHNMEDVYELIENSHLTPKKQGQISEEYMQTVL
notes: whole, on cells; as m1
B4: TSHR Arg255 to Ala, Trp258 to Ala, Tyr185 to Ala and Lys183 to Ala (receptor)
chain: GMGCSSPPCECHQEEDFRVTCKDIQRIPSLPPSTQTLKLIETHLRTIPSHAFSNLPNISRIYVSIDVTLQQLESHSFYNLSKVTHIEIRNTRNLTYIDPDALKELPLLKFLGIFNTGLKMFPDLTKVYSTDIFFILEITDNPYMTSIPVNAFQGLCNETLTLALANNGFTSVQGYAFNGTKLDAVYLNKNKYLTVIDKDAFGGVYSGPSLLDVSQTSVTALPSKGLEHLKELIAANTATLKKLPLSLSFLHLTRADLSYPSHCCAFKNQKKIRGILESLMCNESSMQSLRQRKSVNALNSPLHQEYEENLGDSIVGYKEKSKFQDTHNNAHYYVFFEEQEDEIIGFGQELKNPQEETLQAFDSHYDYTICGDSEDMVCTPKSDEFNPCEDIMGYKFLRIVVWFVSLLALLGNVFVLLILLTSHYKLNVPRFLMCNLAFADFCMGMYLLLIASVDLYTHSEYYNHAIDWQTGPGCNTAGFFTVFASELSVYTLTVITLERWYAITFAMRLDRKIRLRHACAIMVGGWVCCFLLALLPLVGISSYAKVSICLPMDTETPLALAYIVFVLTLNIVAFVIVCCCYVKIYITVRNPQYNPGDKDTKIAKRMAVLIFTDFICMAPISFYALSAILNKPLITVSNSKILLVLFYPLNSCANPFLYAIFTKAFQRDVFILLSKFGICKRQAQAYRGQRVPPKNSTDIQVQKVTHEMRQGLHNMEDVYELIENSHLTPKKQGQISEEYMQTVL
notes: whole, on cells; as m1
B5: TSHR Arg255 to Ala, Lys183 to Ala and Tyr185 to Ala (receptor)
chain: GMGCSSPPCECHQEEDFRVTCKDIQRIPSLPPSTQTLKLIETHLRTIPSHAFSNLPNISRIYVSIDVTLQQLESHSFYNLSKVTHIEIRNTRNLTYIDPDALKELPLLKFLGIFNTGLKMFPDLTKVYSTDIFFILEITDNPYMTSIPVNAFQGLCNETLTLALANNGFTSVQGYAFNGTKLDAVYLNKNKYLTVIDKDAFGGVYSGPSLLDVSQTSVTALPSKGLEHLKELIAANTWTLKKLPLSLSFLHLTRADLSYPSHCCAFKNQKKIRGILESLMCNESSMQSLRQRKSVNALNSPLHQEYEENLGDSIVGYKEKSKFQDTHNNAHYYVFFEEQEDEIIGFGQELKNPQEETLQAFDSHYDYTICGDSEDMVCTPKSDEFNPCEDIMGYKFLRIVVWFVSLLALLGNVFVLLILLTSHYKLNVPRFLMCNLAFADFCMGMYLLLIASVDLYTHSEYYNHAIDWQTGPGCNTAGFFTVFASELSVYTLTVITLERWYAITFAMRLDRKIRLRHACAIMVGGWVCCFLLALLPLVGISSYAKVSICLPMDTETPLALAYIVFVLTLNIVAFVIVCCCYVKIYITVRNPQYNPGDKDTKIAKRMAVLIFTDFICMAPISFYALSAILNKPLITVSNSKILLVLFYPLNSCANPFLYAIFTKAFQRDVFILLSKFGICKRQAQAYRGQRVPPKNSTDIQVQKVTHEMRQGLHNMEDVYELIENSHLTPKKQGQISEEYMQTVL
notes: whole, on cells; as m1

The target in this assay is porcine TSH (RSR Ltd, 70 units per mg) (porcine, UniProt P01219 25-120; P01224 21-132). The assay can be described thus: Scatchard, 125I-ligand, solubilised TSHR on tubes.
As to B1, the binding result is on record as “no binding”.

Consider B2, for which the binding result is reported as “no binding”.

In the case of B3, the binding result is “no binding”.

As for B4, the binding result is “no binding”.

As to B5, the binding result is “no binding”.
